Measurements: patent publication US20160158369A1, “PHARMACEUTICAL COMPOSITION FOR RESPIRATORY ADMINISTRATION” (SEIKAGAKU CORPORATION, priority 2013, published 2016)

Assays:
[1] = Drug dissociation test: polysaccharide derivative in buffer solution, 36°C, 1 week, HPLC; format: physicochemical
Experimental: In the examples relating to drug dissociation test, the drug dissociation ratio was evaluated as described below.
Sodium dihydrogen phosphate dihydrate (780 mg (5.0 mmol)) was dissolved in 500 mL of distilled water to give a liquid A. Separately, disodium hydrogen phosphate dodecahydrate (1.79 g (5.0 mmol)) was dissolved in 500 mL of distilled water to give a liquid B. By mixing the liquid A and liquid B at ratio of 2:3, a phosphate buffer solution of pH 7.5 was prepared.
0.62 g (10 mmol) of boric acid and 0.75 g (10 mmol) of potassium chloride were weighed and dissolved in 500 mL of distilled water to give a liquid C. Separately, by diluting 0.1 N sodium hydroxide solution with distilled water (×10 dilution), a liquid D was prepared.
50 mL of the liquid C and 7 mL of the liquid D were added to a 100 mL mess flask, and according to dilution to 100 mL with distilled water, a borate buffer solution of pH 8.0 was prepared. Furthermore, 50 mL of the liquid C and 40 mL of the liquid D were added to a 100 mL mess flask, and according to mess-up to 100 mL with distilled water, a borate buffer solution of pH 9.0 was prepared.
Each polysaccharide derivative obtained from above was dissolved in a buffer solution at each pH so as to have a concentration of 5 mg/10 mL, and heated for 1 week in an incubator at 36° C. Then, the drug dissociation ratio during the incubation was evaluated every 24 hours by liquid chromatography (HPLC).
The evaluation was performed by measuring the ratio between the drug amount remained in a polysaccharide derivative and the dissociated drug amount according to use of a size exclusion chromatography column (manufactured by TOSOH, TSKgel α-6000, 7.8 mmI.D.×30 cm).
Detailed conditions for the liquid chromatography are as follows.
Analysis time: 40 minutes
Solution for elution: acetonitrile (for HPLC):physiological saline=1:2
Detector: UV detector (240 nm)

[2] = system: rat antigen-induced asthma model; assay: Rat antigen-induced asthma model, eosinophils in bronchoalveolar lavage fluid; format: in vivo
Experimental: Intraperitoneal administration of 1 mL of aluminum hydroxide gel containing ovalbumin (1 mg/mL) was performed 3 times with one day interval. 14 Days after performing the first sensitization, intraperitoneal administration of 1 mL of aluminum hydroxide gel containing ovalbumin (1 mg/mL) was performed again followed by the second sensitization. 7 Days after the second sensitization, inhalation exposure of physiological saline (10 mg/mL) containing ovalbumin was performed by using a nebulizer five times with one day interval in order to induce asthma.
The 0.6 mg/mL prednisolone suspension was orally administered by using a sonde for oral administration under no anesthesia to have prednisolone amount of 3 mg/kg.
Meanwhile, the test was performed with n=6 to 12.
24 Hours after the fifth exposure, phosphate buffered saline (2 mL) containing 0.1% bovine serum albumin heated to 37° C. was injected to a bronchus of a rat under pentobarbital anesthesia and collected thereafter. This procedure was repeated 5 times to have bronchoalveolar lavage fluid. The bronchoalveolar lavage fluid was centrifuged for 3 minutes at 200×g and room temperature. The supernatant was discarded, and the pellet was re-suspended in phosphate buffered saline (500 μL) containing 0.1% bovine serum albumin.
Subsequently, a smear sample of the suspension was prepared followed by Diff-Quik staining. According to cell fractionation, ratio of eosinophil in white blood cells was calculated. According to integration with the number of white blood cells in bronchoalveolar lavage fluid, the number of […] in bronchoalveolar lavage fluid was calculated. Meanwhile, the number of white blood cells in bronchoalveolar lavage fluid was measured by using a blood cell counting chamber. The results are shown in FIG. 4 and the following table.
Dose responsiveness of the compound va in an OVA sensitized rat model was determined in the same manner as (Test example B2).
There were three doses for determination, i.e., 0.35 mg/kg, 3.5 mg/kg, and 35 mg/kg, such that the budesonide amount for administration is 0.1 mg/kg, 1 mg/kg, or 10 mg/kg.

[3] = system: mouse antigen-induced airway hypersensitivity model; assay: Mouse antigen-induced airway hypersensitivity model (AHR, Penh, PC100); format: in vivo; conditions: single intratracheal administration 40 μL, 1 week before the evaluation
Experimental: For the evaluation, BALB/cCrSlc (Japan SLC, Inc., 11-week old) was used. […] Intratracheal administration (volume: 40 μL) of the budesonide suspension, mixture of budesonide and chondroitin sulfate, and an aqueous solution of the compound va was performed by using a glass microsyringe (Ito Micro Syringe, manufactured by ITO SEISAKUSHO CO., LTD.) after fixing the mouse on its back under general anesthesia. […] The administration was performed only once, and it was performed 6 days after the second sensitization. Meanwhile, the test was performed with n=6. Airway hyper responsiveness (AHR) evaluation was performed as described below. On Day 13 after the second sensitization, the mouse was forced to inhale metacholine (hereinbelow, MCh) of 0, 5, 10 and 20 mM, and the airway resistance parameter (Penh) at 3 minutes after the inhalation of metacholine with different concentrations was measured by a device for measuring unrestrained respiratory function (manufactured by Buxco Research System). AUC value of the Penh value was measured, and a graph of MCh concentration vs. AUC was established.

[4] = system: mouse model having antigen-induced rhinitis; assay: Mouse model having antigen-induced rhinitis, cough number; format: in vivo; conditions: single intranasal administration 20 μL
Experimental: As a negative control, phosphate buffered saline was used. As a comparative control, 4 mg/mL budesonide suspension was used. […] From Day 1 after the final nasal cavity sensitization—induction, 20 μL of ovalbumin physiological saline (40 mg/mL) was intranasally administered with 24 hour interval to induce a rhinitis reaction. The induction of the rhinitis reaction was performed 8 times in total for 8 days. […] The phosphate buffered saline, aqueous solution of the compound va, and budesonide suspension were administered only once on the day of inducing initial rhinitis reaction, and 1 hour before administering physiological saline containing ovalbumin. Meanwhile, the test was basically performed with n=6. From the first day to Day 7 after inducing initial rhinitis reaction, number of coughs during 10 minutes after the administration of ovalbumin-containing physiological saline was measured.

Chondroitin Sulfate Introduced with 21-β-Alanyl-Budesonide (25 kDa) [Compound va]
Dissociation ratio (%/day) ([1]; pH 7.4, 36°C): 0.8 %/day
drug dissociation ratio ([1]; pH 7.4, 36°C, day 0): 0.0%
drug dissociation ratio ([1]; pH 7.4, 36°C, day 1): 0.4%
drug dissociation ratio ([1]; pH 7.4, 36°C, day 2): 1.0%
drug dissociation ratio ([1]; pH 7.4, 36°C, day 3): 1.8%
drug dissociation ratio ([1]; pH 7.4, 36°C, day 4): 3.1%
drug dissociation ratio ([1]; pH 7.4, 36°C, day 5): 3.8%
drug dissociation ratio ([1]; pH 7.4, 36°C, day 6): 4.4%
drug dissociation ratio ([1]; pH 7.4, 36°C, day 7): 5.3%
Dissociation ratio (%/day) ([1]; pH 8.0, 36°C): 2.5 %/day
drug dissociation ratio ([1]; pH 8.0, 36°C, day 0): 0.0%
drug dissociation ratio ([1]; pH 8.0, 36°C, day 1): 2.3%
drug dissociation ratio ([1]; pH 8.0, 36°C, day 2): 4.2%
drug dissociation ratio ([1]; pH 8.0, 36°C, day 3): 7.7%
drug dissociation ratio ([1]; pH 8.0, 36°C, day 4): 10.3%
drug dissociation ratio ([1]; pH 8.0, 36°C, day 5): 12.8%
drug dissociation ratio ([1]; pH 8.0, 36°C, day 6): 14.0%
drug dissociation ratio ([1]; pH 8.0, 36°C, day 7): 17.5%
eosinophil-inhibiting activity ([2]; 0.35 mg/kg (0.1 mg/kg in budesonide amount), 1 week after the administration): eosinophil-inhibiting activity was shown
dose responsiveness of eosinophil-inhibiting activity ([2]; 0.35, 3.5 and 35 mg/kg): observed with dose responsiveness
inhibition of enhanced sensitivity to MCh (airway hyper responsiveness, PC100) [3]: inhibited to the level of the control group
change in average cough number Day 1 to Day 7 and total cough number during 8 days [4]: exhibited an inhibition
